Experimental data: PMC3544828

Assays:
[1] = biological target: T1, CcpA (Staphylococcus aureus COL) (UniProt Q5HF38); assay: EMSA; details: Room temperature, 15 min, 250 fmol each of specific and non-specific probe; protein stock in 10 mM Tris-HCl pH 7.5, 100 mM NaCl, 10% glycerol (binding buffer …)
T1 sequence: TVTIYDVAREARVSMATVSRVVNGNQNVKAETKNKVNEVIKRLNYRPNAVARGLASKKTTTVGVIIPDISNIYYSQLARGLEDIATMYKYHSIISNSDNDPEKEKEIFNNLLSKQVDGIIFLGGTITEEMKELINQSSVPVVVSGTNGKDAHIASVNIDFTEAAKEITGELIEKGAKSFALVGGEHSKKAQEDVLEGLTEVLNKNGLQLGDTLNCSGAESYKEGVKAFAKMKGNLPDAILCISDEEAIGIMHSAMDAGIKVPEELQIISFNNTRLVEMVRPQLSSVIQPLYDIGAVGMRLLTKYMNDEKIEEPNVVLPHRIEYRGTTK

[2] = biological target: T2, Rex (Staphylococcus aureus COL) (UniProt Q5HEF5); assay: EMSA; details: Room temperature, 15 min, 250 fmol each of specific and non-specific probe; protein stock in 10 mM Tris-HCl pH 7.5, 100 mM NaCl, 10% glycerol (binding buffer …)
T2 sequence: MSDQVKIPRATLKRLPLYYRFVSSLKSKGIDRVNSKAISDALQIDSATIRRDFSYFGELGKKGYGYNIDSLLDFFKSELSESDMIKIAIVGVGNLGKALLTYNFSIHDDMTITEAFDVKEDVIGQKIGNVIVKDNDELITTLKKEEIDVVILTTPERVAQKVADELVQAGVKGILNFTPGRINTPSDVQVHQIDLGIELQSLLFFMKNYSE

Row | Sequence | binding [1] | binding [2]
1 | CTCCCCTTTTCATCATTTATAACTATTATACATGAAACATTATCCAAATAATTACATTAGTTTTCAAAGCAGATACTTTTCCACCAAAAAAGATGAAATAATCACTAAGTTTCATTAAATTTGTCTATTTTGAAAACCCTTACATTTATAATGACATAATTACTTAAATGATTACAAGCAAAAGAATTGATAATTTTACACTTAATC (double strand) [ProcD2 promoter fragment] | binds | 
2 | CGCATAACTTAAAAGGTCATGTGTCATCCGCTTTTAAGTTTGTGATTTATTTCACATATAAAATGTAACATGCATTAAGTACTGGGTCAATATTAAATTGTGATTTATTTCACATTTTATTTTAATTTTTACACCTTTTTAATTTGTATACGATTACATCTTAGATGTCTTTAGTCTTCGTACTTCGCCAGTGATTATTTACAC (double strand) [Pldh1 promoter fragment] | no binding | binds
